Target: ima4_human KPNA3 (UniProt O00505)
Sequence (O00505 whole entry): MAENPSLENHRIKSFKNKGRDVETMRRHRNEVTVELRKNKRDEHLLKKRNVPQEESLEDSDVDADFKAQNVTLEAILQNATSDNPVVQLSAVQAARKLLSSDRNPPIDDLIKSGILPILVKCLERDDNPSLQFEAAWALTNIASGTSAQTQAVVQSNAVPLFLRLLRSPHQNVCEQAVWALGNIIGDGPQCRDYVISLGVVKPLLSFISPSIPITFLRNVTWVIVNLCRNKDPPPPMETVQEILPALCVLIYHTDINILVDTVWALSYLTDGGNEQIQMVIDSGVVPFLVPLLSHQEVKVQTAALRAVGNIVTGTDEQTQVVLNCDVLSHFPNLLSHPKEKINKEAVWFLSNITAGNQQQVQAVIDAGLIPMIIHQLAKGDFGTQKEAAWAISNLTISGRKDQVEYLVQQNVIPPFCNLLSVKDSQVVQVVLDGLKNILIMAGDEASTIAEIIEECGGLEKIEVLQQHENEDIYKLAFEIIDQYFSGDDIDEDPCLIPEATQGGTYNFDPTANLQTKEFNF

Substance: Circumsporozoite protein (Plasmodium yoelii yoelii), P06914 R315T;R317T;R319T
- effect of a mutation on the interaction: decreasing interaction

From IntAct's records for PubMed 17981117
